Laboratory results from the DeepSol protein solubility set.

Experiment: soluble on expression in E. coli; label from the status in PepcDB or PDB records

Sequence	soluble on expression in E. coli
MGSELLDLSFLSEEEKDLILSVLQRDEEVRKADEKRIRRLKNELLEIKRKGAKRGSQHYSDRTCARCQESLGRLSPKTNTCRGCNHLVCRDCRIQESNGTWRCKVCAKEIEMKKATGDWFYDQKVNRFAYRTGSEIIRMSLRHKPAVSKR	soluble
KGLMSKVKVITRGEATRLINKEDAVVVDLRQRDDFRKGHIAGAINLLPSDIKANNVGELEKHKSQPIIVVDGSGMQAQEPASALNKAGFEKVFVLKEGIAGWSGENLPLVRGK	not soluble
MERQQQQQQQLRNLRDFLLVYNRMTELCFQRCVPSLHHRALDAEEEACLHSCAGKLIHSNHRLMAAYVQLMPALVQRRIADYEAASAVPSVAAEQPGVSPSGS	soluble
MHHHHHHANASETNVGPMAPRVCVVGSVNMDLTFVVDALPRPGETVLAASLTRTPGGKGANQAVAAARAGAQVQFSGAFGDDPAAAQLRAHLRANAVGLDRTVTVPGPSGTAIIVVDASAENTVLVAPGANAHLTPVPSAVANCDVLLTQLEIPVATALAAARAAQSADAVVMVNASPAGQDRSSLQDLAAIADVVIANEHEANDWPSPPTHFVITLGVRGARYVGADGVFEVPAPTVTPVDTAGAGDVFAGVLAANWPRNPGSPAERLRALRRACAAGALATLVSGVGDCAPAAAAIDAALRANRHNGS	soluble
MQQNKCPDCEVELEWTGQYHCGQCESDFKKVGFCPDCGAELEKLQACGAANYFCNTCNELKSKSRVRFEFQKISLEHHHHHH	soluble
MVVVYVVKIGGSLTNNAVNLLENLKKLGEKVVIIPGGGNFANVVRNLHENEKINDISAHKLATMCTDITGTYFSEISGIKTADNLFDAKRILQNESIVIILPSNIILSTDELPCSWEVTSDSFAAYIAKLLNSKTLIIATDVDGIYDKYPEGKLLNTINTKTIKGFTSVDKHLPKLISEYGIKCFVVNGNHPERINNIFKGVVDTYTKITLKLEHHHHHH	not soluble
MGSDKIHHHHHHMTDPRTTAFNGRVAHASLKGEIEAERYSEGRWMMVQQPIANILDKPRGARTSQLVFGERFLVLDTEDGFSFGQAERDGYVGYILSGALTGAEPATHWVISPATHLYPKAELKVPPDVCLYFGSQVKVTGEKDDFKRIHTGHFMPSQHLMPIKARFRDSVGIADLFLGTPYLWGGTSRWGIDCSGLVQACLLACGVECPRDTDQQEAALGEEIPSDEALKRGDLIFWKGHVGMMASDRMLLHANAHHMSTAYEPLKDAAARIEAKEYGPITSRKRIAMG	not soluble
AIANSRAADQLELDGLPGTPPDFYRERQRSRVERYQSPAGAPLQCSVQVQTTQEHPLWTSHVWSGARALADTLCWQPELIAGKTVCELGAGAGLVSIVAFLAGADQVVATDYPDPEILNSLESNIREHTANSCSSETVKRASPKVVPYRWGDSPDSLQRCTGLQRFQVVLLADLLSFHQAHDALLRSVKMLLALPANDPTAVALVTFTHHRPHLAERDLAFFRLVNADGALIAEPWLSPLQMDPMFPDDPGDVCIRGQVHRWRLRWRSAASASANIPAHARNE	soluble
MTGRTGGNGSTQAQPERVMLVGVMLDKDGTGSSAARLNGFQTALAEAVELVKAAGGDSVRVETAKRDRPHTALFVGTGKAAELSEAVAADGIDLVVFNHELTPTQERNLEKELKCRVLDRVGLILAIFARRARTQEGRLQVELAQLSHLAGRLIRGYGHLQSQRGGIGMKGPGETKLETDRRLIAHRINALKKQLANLKKQRALRRKSRESGTIKTFALVGYTNVGKSSLFNRLTKSGIYAKDQLFATLDTTARRLYISPECSIILTDTVGFVSDLPHKLISAFSATLEETAQADVLLHVVDAAAPNSGQQIEDVENVLQEIHAGDIPCIKVYNKTDLLPSEEQNTGIWRDAAGKIAAVRISVAENTGIDALREAIAESCAAAPLEHHHHHH	not soluble
MSLCGIAGFFSRRPVNPAVPQAMLDELHRRGPDDASRLLLDSELNPADGGAIHNAMLHARLAIVDPRPVANQPMASDDGQVWICYNGEVYDWEIGKAELEAGGAVFRTHSDTEFILRGYQAWGIEGLLERLRGMFAFAILDKRCEKVHLARDRMGEKPLLYSLQDGDFAYGSLVRAVLPFLPADKRAFSPAAIDAYLAHRYIPSPATVFSHINRLENGYRLEFDLNTRQLTKQRYWQPKAESGDWLPELDRAVAMRTVADRPLGVLLSGGIDSTVIASRLAIQQLTQFSSFTAAFPGSTLDESGDAADSARRMGLPNVRVDMPENLAADFERIVADLDQPFADPSSFPTWYLAREVTKHVKVVLVGDGGDELLAGYKRMGKHLRTRWRQNIRLPLPIKPQLDSKRGKLATELAMDWKSAYSLRFSGFTPGQRSFLQGGRKLEKLCHWRAPDDIGPEPGDGSPGLHQLLELDFANYLPDYILQKSDLCTMAHGLEGRAPLLDHGFYQRLLSTSAAERYTRPAKLIFRRAIHPALPTDFFQRKKRGFNPPLSGWLKTSLAPRFDGLGSRLAEASGGQLDAGAVDAFARAYRDGAGHLAEQMLQLLILDESLTQLRRLCRELGEGHHHHHH	soluble
MSVINCEEVKRDEFHTEKYYESYNIFGAHIVTEDEMRGVRFTVWAPHAKAMSVVGDFNEWDYEQHKMLQVTEEGIWSLFIPHIEEREIYKYAIETMAGDVIFKADPYAVYAEVRPNTASVVFDIKGYEWNDKNWSRKKKKKSVYKEAMTVYELHFGSWKKKEDGTLYSYREMAEELIPYVVEHQFTHIEIMPLVEHPYDRSWGYQGTGYYAATSRFGTPHDLMHFVDECHKYGIGVILDWVPGHFCKDAHGLYLFDGTPTYEYKDKDVQENPVWGTVNFDLGKREVRNFLISNALFWMRYFHIDGFRVDAVANMLYWNKEGQEQSNEHAVSFLRELNEAVFAEDEDFLMTAEDSTAWPLVTAPTYEGGLGFNYKWNMGWMNDVLKYMECAPEYRKYIHDKMTFSLLYAYSENFILPLSHDEVVHGKKSLLNKMPGDYWDKFAQLRLLYGYFFTHPGKKLLFMGGEFGQFDEWKDLEDLDWNLHDFEMHRYMHDYFKELIALYKRSKPLWQLDHSREGFQWIDANNNEQSIFSFIRQGDKQEDALVVVCNFTKATYENYKVGVPDFEYYNEVLNSDAEQYGGSGQVNKKRLKTFQEPYHNQTAHVEITIPPFGVSILRPVKTRKGSKKQDGSKTKVRSNVTSRGKR	not soluble
FQRSTPAITLESPDIKYPLRLIDREIISHDTRRFRFALPSPQHILGLPVGQHIYLSARIDGNLVVRPYTPISSDDDKGFVDLVIKVYFKDTHPKFPAGGKMSQYLESMQIGDTIEFRGPSGLLVYQGKGKFAIRPDKKSNPIIRTVKSVGMIAGGTGITPMLQVIRAIMKDPDDHTVCHLLFANQTEKDILLRPELEELRNKHSARFKLWYTLDRAPEAWDYGQGFVNEEMIRDHLPPPEEEPLVLMCGPPPMIQYACLPNLDHVGHPTERCFVF	soluble
MGSDKIHHHHHHMEIHMNPWLNAVAQVEALEDLVLNADLVDSMRERWSGLSGSQVGRINFYTPSFKHHETSEVSACGKNAFPAISITGGDCKLQCDHCKAKILEPMIPVRTPEELDRLVDRIVLDGGRGLLLSGGSDHQNVVHYEPYFPTVRKIKDRYPNLQIAMHTGIATPEFARGMEDAGVDVAMMDVIGAQDTINQVYHLRRSVDDFEAALEALVATRMKVVPHIVIGLHYGELLGEWNALEIIQRHLPSALVLVVIMPQYAASSRPFATPAADEIGKFFMDARAALPETPVLLGCARPSGVHRSITDTYAVMAGLNGVAFPSDGMLALAKHLERDVFVTPSCCSMIVGEEVLALGDETTTVPLDYVPAAPKRRPQLRDIPIVFTA	not soluble
MGSDKIHHHHHHMVKTARRRGDDAVRGPGGVLVLGAASWNRMIHVETLPQGASATIFDARETQGAGSTGVGKAMGLAALGYQPTLHCALGRDDHGAQVIAACAGRGISLIVDEHDAATPHHLNIMDQLGGRYSLFLSNGAPDPPINEPRIAEQIAAADTIFLSLCASSKKILHLLEGARAEILLDLHDYDGANPWYEDFIACADVIQLSDVAVADPGAVARRLLSGRAHQVVVTKAGKGAEIVTADTSIDVPPCPADMVDSNGAGDAFSVALWHAQRTGQSGLDAGGFAAAAAACAIESADLFPVNVSAADIAGRVRAHPQDHSTGTASR	not soluble
MGSDKIHHHHHHMVSIIDFYVLQKRPSNGGGFDIAIGNPPYISAPTQIASPELNEQRQRIVASKKYKSLNEKWDLYVPFMELGMQLLCPNGVFSMIVPYPLTNQKYGKKLRKMIVEEYRLLEIADLNGTKIFENATVSNCIPFIQNSQPEGELRITQIFEDKTIREVLSKSPKALKLDKKNYVWNLTEEERTGNRFANMNVLGDFCYISVGMVVNANEKDAQGAFKKEDLISDTYDAIHCRKYIEAKDIDKFQVKRVRYLEWNTERCPEKLRRPTFRELYDRPKLIMNCLGTINVTIDAEEHFLHNHSIYCAILWKDLKDVSNKSISSSVKKFSKHNREAMESLSEKVDLYYLLGILNSSMADQLLTDQRGGDYHIYPEHIRNLPIPVPQREIQNAIGEIAKQILLIRETNTDYSELEEQLNNLVEALYQ	not soluble
MEFNKLQLSHCISFYISDVSEVFFESINQHPSRDFVNNILQKIKSTLSEEELEKLNTIEEVTKDEKILIMLNHVLKKIVSKTGSSSCDLFQIVKHDRFNEPVYIQSVNAFENNLINNEFAERRYDYLIEINKHSYLRKYVNAIRISFFLDLRAQILSGSFTLDVINKQLEHQNKEELFQAIYLRSLIKHFISNQLYPISLNSFIFGDKNRENKTVENDKLSVLKNNWNQIFFSKYFDFVAKNKEERVVDNNCD	not soluble
MTPKRALISLTSYHGPFYKDGAKTGVFVVEILRSFDTFEKHGFEVDFVSETGGFGWDEHYLPKSFIGGEDKMNFETKNSAFNKALARIKTANEVNASDYKVFFASAGHGALFDYPKAKNLQDIASKIYANGGVIAAICHGPLLFDGLIDIKTTRPLIEGKAITGFPLEGEIALGVDDILRSRKLTTVERVANKNGAKYLAPIHPWDDYSITDGKLVTGVNANSSYSTTIRAINALYSVEHHHHH	soluble
MGSDKIHHHHHHMRINPGEITKVLEEKIKSFEEKIDLEDTGKVIQVGDGIARAYGLNKVMVSELVEFVETGVKGVAFNLEEDNVGIIILGEYKDIKEGHTVRRLKRIIEVPVGEELLGRVVNPLGEPLDGKGPINAKNFRPIEIKAPGVIYRKPVDTPLQTGIKAIDSMIPIGRGQRELIIGDRQTGKTAIAIDTIINQKGQGVYCIYVAIGQKKSAIARIIDKLRQYGAMEYTTVVVASASDPASLQYIAPYAGCAMGEYFAYSGRDALVVYDDLSKHAVAYRQLSLLMRRPPGREAYPGDIFYLHSRLLERAVRLNDKLGGGSLTALPIVETQANDISAYIPTNVISITDGQIYLEPGLFYAGQRPAINVGLSVSRVGGSAQIKAMKQVAGMLRIDLAQYRELETFAQFATELDPATRAQIIRGQRLMELLKQEQYSPMPVEEQVVVLFAGVRGYLDDLPVEEVRRFEKEFLRFMHEKHQDILDDIKTKKELTSETEEKLKKAIEEFKTTFRV	not soluble
MTFQETISAYIQERYQITPDFPFKKHPDYLVFRHPRNAKWFALIMPLDAQLLGATENKQLTILTVKLAPELIALLKNQPGYFPAYHMNKEHWLSLSEEIPLSQVFSFIDESYQRSYLEHHHHHH	soluble
MRKSVFVLVFLMASVLFSVELKICYLNEDLLPIVKVTEGRDNPVLEIFEALSSPPEGLKTFVPEGVLRAYFFVGDYLILDFYGEKLKGMNFDSERYFLHQVLYTTFLNVKGVNNVYIIIDGKKRDVLAKHVDIRFSFPREVWEKWPIRLEHHHHHH	not soluble
MSTFKPLKTLTSRRQVLKAGLAALTLSGMSQAIAKDELLKTSNGHSKPKAKKSGGKRVVVLDPGHGGIDTGAIGRNGSKEKHVVLAIAKNVRSILRNHGIDARLTRSGDTFIPLYDRVEIAHKHGADLFMSIHADGFTNPKAAGASVFALSNRGASSAMAKYLSERENRADEVAGKKATDKDHLLQQVLFDLVQTDTIKNSLTLGSHILKKIKPVHKLHSRNTEQAAFVVLKSPSVPSVLVETSFITNPEEERLLGTAAFRQKIATAIAEGVISYFHWFDNQKAHSKKR	soluble
